In test [1] the target is T1, PSMA Fab (biotinylated (site not stated)).
T1 construct: also called Anti-PSMA Fab; 006 PSMA Fab
Put plainly: clonal phage ELISA; PSMA Fab wells pre-incubated with PSMA antigen as competitor; anti-M13-HRP detection.

In test [2] the target is T1, PSMA Fab. In words: clonal phage ELISA; biotinylated PSMA Fab on neutravidin plate; bound phage detected with anti-M13-HRP.
Description: (§1) Clonal phage were harvested as crude supernatants and screened via standard ELISAs. […] Prior to the addition of clonal phage. wells were incubated with blocking buffer and PSMA antigen or blocking buffer alone. Without washing or aspirating, clonal phage supernatants were then added to the wells and incubated for a short time. Wells were then washed followed by detection of bound phage using a horse radish conjugated anti-M13 antibody.
In test [3] the target is T2, PSMA Fab (biotinylated (site not stated)).
T2 construct: also called Anti-PSMA Fab; 006 PSMA Fab
In words: clonal phage ELISA on biotinylated PSMA Fab captured on neutravidin plates, anti-M13 HRP detection.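 Further: crude clonal phage supernatants tested, before phage were added, wells were pretreated with PSMA antigen in blocking buffer or with blocking buffer only.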

Test [4] addresses T2, PSMA Fab. Put plainly: clonal phage ELISA on captured PSMA Fab, wells pre-incubated with PSMA antigen as competitor; column meaning inferred.
Description: as §1
For another test, the target named is T3, PSMA Fab (006 PSMA Fab) (biotinylated (site not given)).
T3 construct: also called Anti-PSMA Fab; anti-PSMA Fab
Put plainly: clonal phage ELISA; biotinylated PSMA Fab on neutravidin plate, blocking buffer alone; anti-M13 HRP detection.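 Further: crude clonal phage supernatants added without washing to wells pretreated with blocking buffer with or without PSMA antigen, short incubation, then washed before detecting bound phage.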

Where no end group is shown, it is not given here.

Description for PSMA Fab (006 PSMA Fab): as §1

As for WEKWCTPSGMCDAR [Phage-2627], the “Phage binding ELISA signal, Anti-PSMA Fab with PSMA antigen” value with PSMA Fab [1] is 0.106. Further, in the test with PSMA Fab [2], the “Phage binding ELISA signal, Anti-PSMA Fab” value stood at 0.982.

For the molecule MNKWCTPAWMCEVV (cysteine pairing not given here; also: displayed on phage as pIII fusion) [Phage-2619], the “Phage binding ELISA signal, Anti-PSMA Fab with PSMA antigen” value with PSMA Fab [1] was found to be 0.095. Also, in the test with PSMA Fab [2], the “Phage binding ELISA signal, Anti-PSMA Fab” value was found to be 0.998.

Take MTQWCIPEWMCSEE [Phage-2624]: the “Phage binding ELISA signal, Anti-PSMA Fab with PSMA antigen” value in the test with PSMA Fab [1] was determined as 0.0648. In the test with PSMA Fab [2], the “Phage binding ELISA signal, Anti-PSMA Fab” value is 0.99.

B1: Phage-2612 (peptide)
peptide: FANWCTPSWMCVGM
modifications: cysteine pairing not given here; also: displayed on phage pIII, linker not given here
notes: Clonal phage of the peptide-180 library; not shown: fused to pIII of the bacteriophage
For B1, the “Phage binding ELISA signal, Anti-PSMA Fab” value in the test with PSMA Fab [3] stood at 1.02. For the same molecule, the “Phage binding ELISA signal, Anti-PSMA Fab in presence of PSMA antigen” value (“Phage binding ELISA signal … of PSMA antigen” for short) in the test with PSMA Fab [4] came out at 0.0676.

As to VTKLCIPEWMCASD (cysteine pairing not given here; also: displayed on phage as pIII fusion) [Phage-2630], the “Phage binding ELISA signal, Anti-PSMA Fab with PSMA antigen” value in the test with PSMA Fab [1] worked out at 0.0961. Besides, the “Phage binding ELISA signal, Anti-PSMA Fab” value in the test with PSMA Fab [2] is 0.975.

As to TPKWCTPPWMCQHG [Phage-2623], in the test with PSMA Fab [1], the “Phage binding ELISA signal, Anti-PSMA Fab with PSMA antigen” value was found to be 0.0728. In addition, in the test with PSMA Fab [2], the “Phage binding ELISA signal, Anti-PSMA Fab” value was 0.994.

B2: Phage-2618 (peptide)
peptide: AFKWCIPNWMCASQ
modifications: cysteine pairing not given here; also: fused to phage pIII (clonal phage display)
notes: as for B1
As to B2, in the test with PSMA Fab [3], the “Phage binding ELISA signal, Anti-PSMA Fab” value amounted to 1.01. For the same molecule, the “Phage binding ELISA signal … of PSMA antigen” value with PSMA Fab [4] was determined as 0.0999.

For the molecule AEKWCIPEWMCEQL [Phage-2632], in the test with PSMA Fab [1], the “Phage binding ELISA signal, Anti-PSMA Fab with PSMA antigen” value was 0.0717. In addition, the “Phage binding ELISA signal, Anti-PSMA Fab” value in the test with PSMA Fab [2] was determined as 0.972.

B3: Phage-2609 (peptide)
peptide: MVKWCTPAWMCTLE
modifications: cysteine pairing not given here; also: displayed on phage as pIII fusion, linker and pIII sequence not given here
notes: as for B1
As to B3, in the test with PSMA Fab [3], the “Phage binding ELISA signal, Anti-PSMA Fab” value turned out to be 1.02. For the same molecule, the “Phage binding ELISA signal … of PSMA antigen” value in the test with PSMA Fab [4] was determined as 0.0801.

B4: Phage-2680 (peptide)
peptide: DMNWCSPPWMCFGF
modifications: cysteine pairing not given here; also: displayed on bacteriophage as fusion to pIII, fusion and linker not given here
notes: Tested as clonal phage supernatant; also called Peptide-180 library clone
With B4, the “Phage binding ELISA signal, Anti-PSMA Fab” value with PSMA Fab (006 PSMA Fab) stood at 0.873.

B5: Phage-2614 (peptide)
peptide: HVNWCTPKWMCSGF
modifications: cysteine pairing not given here; also: displayed on phage pIII, linker not given here
notes: as for B1
In the case of B5, the “Phage binding ELISA signal, Anti-PSMA Fab” value in the test with PSMA Fab [3] was 1.02. Also, the “Phage binding ELISA signal … of PSMA antigen” value with PSMA Fab [4] stood at 0.0894.

Turning to VPKWCTPDWMCYGM [Phage-2621], in the test with PSMA Fab [1], the “Phage binding ELISA signal, Anti-PSMA Fab with PSMA antigen” value came to 0.0681. In the test with PSMA Fab [2], the “Phage binding ELISA signal, Anti-PSMA Fab” value was found to be 0.996.

B6: Phage-2617 (peptide)
peptide: YTPWCKPAWMCSVS
modifications: cysteine pairing not given here; also: displayed on phage pIII, linker not given here
notes: as for B1
As for B6, the “Phage binding ELISA signal, Anti-PSMA Fab” value with PSMA Fab [3] came to 1.01. The “Phage binding ELISA signal … of PSMA antigen” value with PSMA Fab [4] is 0.0806.

B7: Phage-2615 (peptide)
peptide: HEKWCIPPWMCEAN
modifications: cysteine pairing not given here; also: fused to phage pIII (clonal phage display)
notes: as for B1
Consider B7, for which the “Phage binding ELISA signal, Anti-PSMA Fab” value in the test with PSMA Fab [3] worked out at 1.01. In the test with PSMA Fab [4], the “Phage binding ELISA signal … of PSMA antigen” value was determined as 0.0603.

B8: Phage-2611 (peptide)
peptide: VEKWCIPEWMCETS
modifications: cysteine pairing not given here; also: displayed on phage pIII, linker not given here
notes: as for B1
B8: the “Phage binding ELISA signal, Anti-PSMA Fab” value with PSMA Fab [3] was 1.02. In the test with PSMA Fab [4], the “Phage binding ELISA signal … of PSMA antigen” value stood at 0.0624.

B9: Phage-2681 (peptide)
peptide: GEKWCTPPWMCMFQ
modifications: cysteine pairing not given here; also: displayed on bacteriophage as fusion to pIII, fusion and linker not given here
notes: as for B4
Turning to B9, in the test with PSMA Fab (006 PSMA Fab), the “Phage binding ELISA signal, Anti-PSMA Fab” value was 0.861.

B10: Phage-2684 (peptide)
peptide: SEAWCIPSWMCRGD
modifications: cysteine pairing not given here; also: fused to phage pIII (clonal phage display)
notes: as for B4
Turning to B10, the “Phage binding ELISA signal, Anti-PSMA Fab” value in the test with PSMA Fab (006 PSMA Fab) was determined as 0.857.

Turning to IANWCTPQWMCDGF [Phage-2620], the “Phage binding ELISA signal, Anti-PSMA Fab with PSMA antigen” value in the test with PSMA Fab [1] turned out to be 0.0631. Besides, the “Phage binding ELISA signal, Anti-PSMA Fab” value with PSMA Fab [2] is 0.997.

B11: Phage-2610 (peptide)
peptide: SSMLCIPPWMCEQS
modifications: cysteine pairing not given here; also: displayed on phage as pIII fusion, linker and pIII sequence not given here
notes: as for B1
B11: in the test with PSMA Fab [3], the “Phage binding ELISA signal, Anti-PSMA Fab” value is 1.02. The “Phage binding ELISA signal … of PSMA antigen” value with PSMA Fab [4] came to 0.0682.

B12: Phage-2613 (peptide)
peptide: MYNLCTPEWMCAGF
modifications: cysteine pairing not given here; also: displayed on phage pIII, linker not given here
notes: as for B1
For B12, the “Phage binding ELISA signal, Anti-PSMA Fab” value in the test with PSMA Fab [3] came to 1.02. For the same molecule, in the test with PSMA Fab [4], the “Phage binding ELISA signal … of PSMA antigen” value came out at 0.0554.

B13: Phage-2685 (peptide)
peptide: PMKLCSPPWMCFYD
modifications: cysteine pairing not given here; also: displayed on bacteriophage as fusion to pIII, fusion and linker not given here
notes: as for B4
With B13, in the test with PSMA Fab (006 PSMA Fab), the “Phage binding ELISA signal, Anti-PSMA Fab” value was 0.85.

With FHMWCTPAWMCADQ (cysteine pairing not given here; also: displayed on phage as pIII fusion) [Phage-2622], the “Phage binding ELISA signal, Anti-PSMA Fab with PSMA antigen” value in the test with PSMA Fab [1] is 0.126. Also, the “Phage binding ELISA signal, Anti-PSMA Fab” value in the test with PSMA Fab [2] was 0.996.

With VVPRCTPPWMCLVS [Phage-2629], in the test with PSMA Fab [1], the “Phage binding ELISA signal, Anti-PSMA Fab with PSMA antigen” value came to 0.0785. The “Phage binding ELISA signal, Anti-PSMA Fab” value with PSMA Fab [2] was 0.976.

B14: Phage-2683 (peptide)
peptide: EYAWCIPEWMCGWI
modifications: cysteine pairing not given here; also: displayed on bacteriophage as fusion to pIII, fusion and linker not given here
notes: as for B4
For B14, the “Phage binding ELISA signal, Anti-PSMA Fab” value with PSMA Fab (006 PSMA Fab) turned out to be 0.858.

As to VEMLCKPAWMCANQ (cysteine pairing not given here; also: displayed on phage as pIII fusion) [Phage-2626], the “Phage binding ELISA signal, Anti-PSMA Fab with PSMA antigen” value in the test with PSMA Fab [1] amounted to 0.0829. Besides, in the test with PSMA Fab [2], the “Phage binding ELISA signal, Anti-PSMA Fab” value was found to be 0.986.

B15: Phage-2616 (peptide)
peptide: QDNWCIPRWMCEAM
modifications: cysteine pairing not given here; also: displayed on phage pIII, linker not given here
notes: as for B1
With B15, the “Phage binding ELISA signal, Anti-PSMA Fab” value with PSMA Fab [3] came out at 1.01. Moreover, the “Phage binding ELISA signal … of PSMA antigen” value with PSMA Fab [4] was determined as 0.0626.

As for THHWCIPAWMCEQD [Phage-2633], the “Phage binding ELISA signal, Anti-PSMA Fab with PSMA antigen” value with PSMA Fab [1] came out at 0.0809. Further, the “Phage binding ELISA signal, Anti-PSMA Fab” value with PSMA Fab [2] was 0.967.

With VMSWCVPAWMCETP [Phage-2631], the “Phage binding ELISA signal, Anti-PSMA Fab with PSMA antigen” value with PSMA Fab [1] worked out at 0.0614. Moreover, the “Phage binding ELISA signal, Anti-PSMA Fab” value with PSMA Fab [2] was determined as 0.973.

For LNNWCTPLWMCQMF [Phage-2628], the “Phage binding ELISA signal, Anti-PSMA Fab with PSMA antigen” value with PSMA Fab [1] was 0.201. Besides, in the test with PSMA Fab [2], the “Phage binding ELISA signal, Anti-PSMA Fab” value was 0.979.

B16: Phage-2682 (peptide)
peptide: DVKWCIPSWMCQDV
modifications: cysteine pairing not given here; also: displayed on bacteriophage as fusion to pIII, fusion and linker not given here
notes: as for B4
As to B16, in the test with PSMA Fab (006 PSMA Fab), the “Phage binding ELISA signal, Anti-PSMA Fab” value worked out at 0.859.

As for PETRCIPSWMCSGM [Phage-2625], in the test with PSMA Fab [1], the “Phage binding ELISA signal, Anti-PSMA Fab with PSMA antigen” value is 0.0912. Besides, in the test with PSMA Fab [2], the “Phage binding ELISA signal, Anti-PSMA Fab” value came out at 0.989.

Values taken from US20260242478A1 (published 2026).
